Paper doi:10.1101/2020.10.06.326603 (bioRxiv, 2020)
Residue numbers refer to the chain shown, from its start. Names and notes keep the numbering of the source. Where two headings read alike, the source gives them in different places.

B1: IscS S10H, H247P, Q248L variant (enzyme, E. coli)
chain: MKLPIYLDYHATTPVDPRVAEKMMQFMTMDGTFGNPASRSHRFGWQAEEAVDIARNQIADLVGADPREIVFTSGATESDNLAIKGAANFYQKKGKHIITSKTEHKAVLDTCRQLEREGFEVTYLAPQRNGIIDLKELEAAMRDDTILVSIMHVNNEIGVVQDIAAIGEMCRARGIIYHVDATQSVGKLPIDLSQLKVDLMSFSGHKIYGPKGIGALYVRRKPRVRIEAQMHGGGHERGMRSGTLPVPLIVGMGEAYRIAKEEMATEMERLRGLRNRLWNGIKDIEEVYLNGDLEHGAPNILNVSFNYVEGESLIMALKDLAVSSGSACTSASLEPSYVLRALGLNDELAHSSIRFSLGRFTTEEEIDYTIELVRKSIGRLRDLSPLWEMYKQGVDLNSIEWAHH
B2: IscS S10Q, H247P, Q248L variant (enzyme, E. coli)
chain: B1 chain with H10Q
B3: IscS S10N, H247P, Q248L variant (enzyme, E. coli)
chain: B1 chain with H10N
B4: CyaY (E. coli homolog of frataxin) (natural protein, UniProt P27838 1-106, looked up)
chain: MNDSEFHRLADQLWLTIEERLDDWDGDSDIDCEINGGVLTITFENGSKIIINRQEPLHQVWLATKQGGYHFDLKGDEWICDRSGETFWDLLEQAATQQAGETVSFR

What was measured:
SEC [1] = biological target: the molecule itself; experiment: SEC
[2] = biological target: the molecule itself; experiment: cell-based or functional assay
[3] = biological target: the molecule itself
SEC [4] = biological target: the molecule itself; experiment: SEC; remark: listed apart in the source
[5] = biological target: B2; experiment: native MS
IscS^QPL-IscU complex = IscS^QPL-IscU complex (E. coli, UniProt P0A6B7 1-404; P0ACD4 1-128, S10Q | H247P | Q248L); experiment: native MS

Row | Binder | stoichiometry N (SEC [1]) | cysteine desulfurase activity under standard conditions (kcat) [2] [s⁻¹] | Kd [3] [µM] | stoichiometry N (SEC [4]) | binding result [5] | binding result (IscS^QPL-IscU complex)
1 | B1 | 2 | 0.025 | 8 |  |  | 
2 | B2 |  | 0.00367 | 32 | 2 |  | 
3 | B3 | 2 | 0.148 | 0.8 |  |  | 
4 | B4 |  |  |  |  | binds | binds
